Laboratory results published in paper doi:10.1101/2021.05.10.443400 (bioRxiv, 2021).

How the values were obtained:
[1] = molecular target: T1, Human MutSα (MSH2-MSH6 complex), purified (human, UniProt P43246 1-934; P52701 1-1360); assay: pull-down
[2] = molecular target: T1, Human MutSα (MSH2-MSH6 complex), …; assay: co-IP

T1 sequence (P43246 whole entry, chain 1 of 2): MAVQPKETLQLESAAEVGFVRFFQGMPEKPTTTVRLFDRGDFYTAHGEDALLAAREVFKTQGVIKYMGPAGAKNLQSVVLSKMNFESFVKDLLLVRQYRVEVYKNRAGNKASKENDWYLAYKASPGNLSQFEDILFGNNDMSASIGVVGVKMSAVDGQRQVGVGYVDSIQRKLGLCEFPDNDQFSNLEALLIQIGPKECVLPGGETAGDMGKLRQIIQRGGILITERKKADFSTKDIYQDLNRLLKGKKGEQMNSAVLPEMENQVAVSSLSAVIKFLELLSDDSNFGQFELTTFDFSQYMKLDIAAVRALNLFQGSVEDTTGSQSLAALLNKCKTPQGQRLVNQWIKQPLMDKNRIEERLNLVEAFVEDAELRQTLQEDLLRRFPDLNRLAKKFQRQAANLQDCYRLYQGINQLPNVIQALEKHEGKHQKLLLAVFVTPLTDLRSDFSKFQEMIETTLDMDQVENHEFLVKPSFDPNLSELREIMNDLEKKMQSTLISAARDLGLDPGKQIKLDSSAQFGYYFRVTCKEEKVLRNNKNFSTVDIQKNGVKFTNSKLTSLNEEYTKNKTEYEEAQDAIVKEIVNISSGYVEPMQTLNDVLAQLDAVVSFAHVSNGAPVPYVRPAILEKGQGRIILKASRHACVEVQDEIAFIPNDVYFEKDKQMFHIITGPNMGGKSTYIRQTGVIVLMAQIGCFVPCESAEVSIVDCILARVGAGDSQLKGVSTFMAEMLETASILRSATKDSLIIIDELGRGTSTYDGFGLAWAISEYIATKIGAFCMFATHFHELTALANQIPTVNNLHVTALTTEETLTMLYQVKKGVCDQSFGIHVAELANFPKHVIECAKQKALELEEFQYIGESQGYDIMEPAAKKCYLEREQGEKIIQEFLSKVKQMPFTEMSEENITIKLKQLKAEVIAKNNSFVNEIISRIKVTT
T1 sequence (P52701 whole entry, chain 2 of 2): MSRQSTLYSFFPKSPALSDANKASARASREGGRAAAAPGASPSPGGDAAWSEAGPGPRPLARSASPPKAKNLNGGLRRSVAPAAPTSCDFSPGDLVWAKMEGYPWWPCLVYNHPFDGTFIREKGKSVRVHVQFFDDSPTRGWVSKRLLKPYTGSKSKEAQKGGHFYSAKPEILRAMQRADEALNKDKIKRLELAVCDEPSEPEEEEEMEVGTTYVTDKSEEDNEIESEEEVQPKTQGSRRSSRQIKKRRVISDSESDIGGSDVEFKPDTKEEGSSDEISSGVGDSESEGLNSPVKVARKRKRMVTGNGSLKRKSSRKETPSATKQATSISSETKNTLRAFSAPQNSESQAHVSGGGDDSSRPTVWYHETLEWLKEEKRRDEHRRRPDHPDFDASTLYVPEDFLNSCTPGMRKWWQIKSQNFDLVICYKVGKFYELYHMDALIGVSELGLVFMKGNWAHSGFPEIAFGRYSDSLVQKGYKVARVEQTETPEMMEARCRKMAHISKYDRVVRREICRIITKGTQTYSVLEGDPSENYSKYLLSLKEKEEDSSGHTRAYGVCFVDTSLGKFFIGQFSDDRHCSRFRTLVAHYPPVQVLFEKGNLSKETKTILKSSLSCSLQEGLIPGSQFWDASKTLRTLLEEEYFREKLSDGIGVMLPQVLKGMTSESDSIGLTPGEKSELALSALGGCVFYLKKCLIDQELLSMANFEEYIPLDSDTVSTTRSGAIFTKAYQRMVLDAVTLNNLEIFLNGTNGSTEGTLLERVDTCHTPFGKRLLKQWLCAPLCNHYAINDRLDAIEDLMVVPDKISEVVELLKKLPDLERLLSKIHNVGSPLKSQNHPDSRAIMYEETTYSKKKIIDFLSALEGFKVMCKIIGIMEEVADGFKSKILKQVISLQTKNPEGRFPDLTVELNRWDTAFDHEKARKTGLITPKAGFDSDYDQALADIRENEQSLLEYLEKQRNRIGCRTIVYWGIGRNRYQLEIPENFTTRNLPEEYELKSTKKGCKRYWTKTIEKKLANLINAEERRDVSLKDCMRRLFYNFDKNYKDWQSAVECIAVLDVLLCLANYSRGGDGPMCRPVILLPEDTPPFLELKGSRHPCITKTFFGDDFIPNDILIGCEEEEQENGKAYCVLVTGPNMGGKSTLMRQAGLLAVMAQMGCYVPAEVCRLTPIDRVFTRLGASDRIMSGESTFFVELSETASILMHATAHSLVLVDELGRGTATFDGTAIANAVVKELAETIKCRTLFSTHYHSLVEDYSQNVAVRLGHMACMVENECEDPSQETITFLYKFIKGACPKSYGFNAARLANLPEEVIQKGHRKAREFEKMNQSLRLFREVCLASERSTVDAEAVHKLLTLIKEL

Row | binding result [1] | binding result [2] | Binder
1 | binds | – | Human GST-Flag-Orc6, full length (natural protein, UniProt Q9Y5N6 1-252, looked up) MGSELIGRLAPRLGLAEPDMLRKAEEYLRLSRVKCVGLSARTTETSSAVMCLDLAASWMKCPLDRAYLIKLSGLNKETYQSCLKSFECLLGLNSNIGIRDLAVQFSCIEAVNMASKILKSYESSLPQTQQVDLDLSRPLFTSAALLSACKILKLKVDKNKMVATSGVKKAIFDRLCKQLEKIGQQVDREPGDVATPPRKRKKIVVEAPAKEMEKVEEMPHKPQKDEDLTQDYEEWKRKILENAASAQKATAE
2 | – | binds | Human Flag-MutLα (MLH1-PMS2 complex), purified (complex) chain 1: MSFVAGVIRRLDETVVNRIAAGEVIQRPANAIKEMIENCLDAKSTSIQVIVKEGGLKLIQIQDNGTGIRKEDLDIVCERFTTSKLQSFEDLASISTYGFRGEALASISHVAHVTITTKTADGKCAYRASYSDGKLKAPPKPCAGNQGTQITVEDLFYNIATRRKALKNPSEEYGKILEVVGRYSVHNAGISFSVKKQGETVADVRTLPNASTVDNIRSIFGNAVSRELIEIGCEDKTLAFKMNGYISNANYSVKKCIFLLFINHRLVESTSLRKAIETVYAAYLPKNTHPFLYLSLEISPQNVDVNVHPTKHEVHFLHEESILERVQQHIESKLLGSNSSRMYFTQTLLPGLAGPSGEMVKSTTSLTSSSTSGSSDKVYAHQMVRTDSREQKLDAFLQPLSKPLSSQPQAIVTEDKTDISSGRARQQDEEMLELPAPAEVAAKNQSLEGDTTKGTSEMSEKRGPTSSNPRKRHREDSDVEMVEDDSRKEMTAACTPRRRIINLTSVLSLQEEINEQGHEVLREMLHNHSFVGCVNPQWALAQHQTKLYLLNTTKLSEELFYQILIYDFANFGVLRLSEPAPLFDLAMLALDSPESGWTEEDGPKEGLAEYIVEFLKKKAEMLADYFSLEIDEEGNLIGLPLLIDNYVPPLEGLPIFILRLATEVNWDEEKECFESLSKECAMFYSIRKQYISEESTLSGQQSEVPGSIPNSWKWTVEHIVYKALRSHILPPKHFTEDGNILQLANLPDLYKVFERC chain 2: MERAESSSTEPAKAIKPIDRKSVHQICSGQVVLSLSTAVKELVENSLDAGATNIDLKLKDYGVDLIEVSDNGCGVEEENFEGLTLKHHTSKIQEFADLTQVETFGFRGEALSSLCALSDVTISTCHASAKVGTRLMFDHNGKIIQKTPYPRPRGTTVSVQQLFSTLPVRHKEFQRNIKKEYAKMVQVLHAYCIISAGIRVSCTNQLGQGKRQPVVCTGGSPSIKENIGSVFGQKQLQSLIPFVQLPPSDSVCEEYGLSCSDALHNLFYISGFISQCTHGVGRSSTDRQFFFINRRPCDPAKVCRLVNEVYHMYNRHQYPFVVLNISVDSECVDINVTPDKRQILLQEEKLLLAVLKTSLIGMFDSDVNKLNVSQQPLLDVEGNLIKMHAADLEKPMVEKQDQSPSLRTGEEKKDVSISRLREAFSLRHTTENKPHSPKTPEPRRSPLGQKRGMLSSSTSGAISDKGVLRPQKEAVSSSHGPSDPTDRAEVEKDSGHGSTSVDSEGFSIPDTGSHCSSEYAASSPGDRGSQEHVDSQEKAPKTDDSFSDVDCHSNQEDTGCKFRVLPQPTNLATPNTKRFKKEEILSSSDICQKLVNTQDMSASQVDVAVKINKKVVPLDFSMSSLAKRIKQLHHEAQQSEGEQNYRKFRAKICPGENQAAEDELRKEISKTMFAEMEIIGQFNLGFIITKLNEDIFIVDQHATDEKYNFEMLQQHTVLQGQRLIAPQTLNLTAVNEAVLIENLEIFRKNGFDFVIDENAPVTERAKLISLPTSKNWTFGPQDVDELIFMLSDSPGVMCRPSRVKQMFASRACRKSVMIGTALNTSEMKKLITHMGEMDHPWNCPHGRPTMRHIANLGVISQN
3 | binds | – | GST-Flag-Orc6 middle TFIIB (TFIIB-B) domain (94-187) (domain or fragment, human, UniProt Q9Y5N6 94-187, looked up) SNIGIRDLAVQFSCIEAVNMASKILKSYESSLPQTQQVDLDLSRPLFTSAALLSACKILKLKVDKNKMVATSGVKKAIFDRLCKQLEKIGQQVD
